Measured values published in US20230340151A1 (Pfizer, published 2023).

T1: Human CD3 epsilon-delta (human)
T1 construct: Single-chain epsilon-linker-delta with His6; also called huCD3
T1 chain: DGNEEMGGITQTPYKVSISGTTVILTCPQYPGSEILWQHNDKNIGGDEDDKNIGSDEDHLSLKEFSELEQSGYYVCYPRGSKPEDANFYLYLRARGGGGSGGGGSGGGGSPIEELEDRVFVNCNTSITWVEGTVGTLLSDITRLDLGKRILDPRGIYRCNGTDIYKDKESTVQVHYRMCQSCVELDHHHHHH

T2: Cynomolgus GUCY2C-ECD Cleaved (cynomolgus, UniProt P25092 24-430 (human entry))
T2 construct: also called CyGUCY2C
T2 chain: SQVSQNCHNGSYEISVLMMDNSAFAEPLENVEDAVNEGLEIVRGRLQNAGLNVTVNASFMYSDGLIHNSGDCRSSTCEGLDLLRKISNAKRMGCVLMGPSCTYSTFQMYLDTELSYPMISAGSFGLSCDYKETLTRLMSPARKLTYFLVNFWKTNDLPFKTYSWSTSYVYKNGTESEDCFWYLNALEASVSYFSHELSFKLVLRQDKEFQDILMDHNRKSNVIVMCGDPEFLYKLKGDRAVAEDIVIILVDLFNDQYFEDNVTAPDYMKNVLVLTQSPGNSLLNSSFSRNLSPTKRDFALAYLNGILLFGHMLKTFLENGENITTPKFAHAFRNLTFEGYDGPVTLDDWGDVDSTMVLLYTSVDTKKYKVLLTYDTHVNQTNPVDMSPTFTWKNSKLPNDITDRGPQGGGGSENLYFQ

T3: Cynomolgus CD3 epsilon-delta (cynomolgus)
T3 chain: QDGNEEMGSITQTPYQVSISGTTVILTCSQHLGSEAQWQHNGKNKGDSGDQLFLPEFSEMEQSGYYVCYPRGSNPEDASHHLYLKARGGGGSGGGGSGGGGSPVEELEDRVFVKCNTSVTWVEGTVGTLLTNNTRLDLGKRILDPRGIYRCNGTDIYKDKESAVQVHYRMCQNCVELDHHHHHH

T4: Murine GUCY2C-ECD cleaved (mouse, UniProt Q3UWA6 20-433)
T4 sequence: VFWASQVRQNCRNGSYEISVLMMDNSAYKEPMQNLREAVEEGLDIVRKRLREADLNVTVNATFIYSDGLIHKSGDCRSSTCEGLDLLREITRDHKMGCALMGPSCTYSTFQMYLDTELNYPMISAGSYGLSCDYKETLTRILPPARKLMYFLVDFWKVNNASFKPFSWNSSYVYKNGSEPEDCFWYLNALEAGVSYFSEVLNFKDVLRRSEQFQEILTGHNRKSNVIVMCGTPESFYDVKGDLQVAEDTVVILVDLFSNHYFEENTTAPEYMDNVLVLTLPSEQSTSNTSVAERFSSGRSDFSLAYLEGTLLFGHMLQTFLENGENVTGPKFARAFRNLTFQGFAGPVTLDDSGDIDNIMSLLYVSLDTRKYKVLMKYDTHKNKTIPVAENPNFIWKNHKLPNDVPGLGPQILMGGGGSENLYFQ


Legend:
[1] = target: T5, Purified human GUCY2c ECD (recombinant, construct not stated) (human, UniProt P25092 24-430); assay: ELISA; column 'Direct huGUCY2C binding (nM)'
T5 construct: also called recombinant human GUCY2c; recombinant GUCY2c protein

Human GUCY2C ECD-muIgG2a = target: T6, Human GUCY2C ECD-muIgG2a (human); assay: sandwich ELISA: CD3 epsilon-delta coated, GUCY2c ECD-mIgG2a Fc in solution
T6 construct: also called human GUCY2c ECD-mouse IgG2a Fc fusion protein; huGUCY2c-mIgG2a

[2] = target: Human GUCY2c on tumor cells (T84, HT55) (human, UniProt P25092 24-1073); assay: cell-based or functional assay
[3] = target: T7, Human GUCY2C full length (SEQ ID NO: 224), recombinant protein (human, UniProt P25092 24-430, limits assumed); assay: SPR, GUCY2c directly immobilized, 25 C
T7 construct: also called huGUCY2C; biotinylated human GUCY2c

[4] = target: T5, Purified human GUCY2c ECD (recombinant, …); assay: direct ELISA, coated GUCY2c ECD
Human CD3 epsilon-delta [5] = target: T1, Human CD3 epsilon-delta; assay: direct ELISA, coated CD3 epsilon-delta
[6] = target: T7, Human GUCY2C full length (SEQ ID NO: …); assay: SPR, anti-human IgG capture, 25 C
[7] = target: T2, Cynomolgus GUCY2C-ECD Cleaved; assay: SPR, anti-human IgG capture, 25 C
Human CD3 epsilon-delta [8] = target: T1, Human CD3 epsilon-delta; assay: SPR, anti-human IgG capture, 25 C
[9] = target: T3, Cynomolgus CD3 epsilon-delta; assay: SPR, printed anti-His capture, 25 C (Table 33D)
[10] = target: T4, Murine GUCY2C-ECD cleaved; assay: SPR, anti-human IgG capture, 25 C

T6 sequence (chain, as listed by the source limits assumed): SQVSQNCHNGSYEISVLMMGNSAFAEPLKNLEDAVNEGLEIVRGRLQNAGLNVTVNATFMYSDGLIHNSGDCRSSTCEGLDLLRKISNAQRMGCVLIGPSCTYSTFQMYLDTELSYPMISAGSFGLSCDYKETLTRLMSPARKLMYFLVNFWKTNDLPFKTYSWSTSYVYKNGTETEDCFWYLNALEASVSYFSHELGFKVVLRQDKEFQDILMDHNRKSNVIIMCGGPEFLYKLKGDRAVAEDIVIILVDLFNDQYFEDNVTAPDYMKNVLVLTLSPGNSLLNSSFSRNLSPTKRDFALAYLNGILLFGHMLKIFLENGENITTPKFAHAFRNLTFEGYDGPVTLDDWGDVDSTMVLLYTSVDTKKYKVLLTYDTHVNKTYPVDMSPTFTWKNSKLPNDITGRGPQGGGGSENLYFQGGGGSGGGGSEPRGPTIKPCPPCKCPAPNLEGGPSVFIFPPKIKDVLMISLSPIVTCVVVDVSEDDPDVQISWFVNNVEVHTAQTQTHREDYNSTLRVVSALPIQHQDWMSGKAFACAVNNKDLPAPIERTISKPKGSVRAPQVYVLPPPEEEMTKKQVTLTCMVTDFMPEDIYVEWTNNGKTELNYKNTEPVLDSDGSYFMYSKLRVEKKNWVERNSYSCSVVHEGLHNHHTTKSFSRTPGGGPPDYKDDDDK
Sequence of Human GUCY2c on tumor cells (T84, HT55) (P25092 24-1073 limits assumed): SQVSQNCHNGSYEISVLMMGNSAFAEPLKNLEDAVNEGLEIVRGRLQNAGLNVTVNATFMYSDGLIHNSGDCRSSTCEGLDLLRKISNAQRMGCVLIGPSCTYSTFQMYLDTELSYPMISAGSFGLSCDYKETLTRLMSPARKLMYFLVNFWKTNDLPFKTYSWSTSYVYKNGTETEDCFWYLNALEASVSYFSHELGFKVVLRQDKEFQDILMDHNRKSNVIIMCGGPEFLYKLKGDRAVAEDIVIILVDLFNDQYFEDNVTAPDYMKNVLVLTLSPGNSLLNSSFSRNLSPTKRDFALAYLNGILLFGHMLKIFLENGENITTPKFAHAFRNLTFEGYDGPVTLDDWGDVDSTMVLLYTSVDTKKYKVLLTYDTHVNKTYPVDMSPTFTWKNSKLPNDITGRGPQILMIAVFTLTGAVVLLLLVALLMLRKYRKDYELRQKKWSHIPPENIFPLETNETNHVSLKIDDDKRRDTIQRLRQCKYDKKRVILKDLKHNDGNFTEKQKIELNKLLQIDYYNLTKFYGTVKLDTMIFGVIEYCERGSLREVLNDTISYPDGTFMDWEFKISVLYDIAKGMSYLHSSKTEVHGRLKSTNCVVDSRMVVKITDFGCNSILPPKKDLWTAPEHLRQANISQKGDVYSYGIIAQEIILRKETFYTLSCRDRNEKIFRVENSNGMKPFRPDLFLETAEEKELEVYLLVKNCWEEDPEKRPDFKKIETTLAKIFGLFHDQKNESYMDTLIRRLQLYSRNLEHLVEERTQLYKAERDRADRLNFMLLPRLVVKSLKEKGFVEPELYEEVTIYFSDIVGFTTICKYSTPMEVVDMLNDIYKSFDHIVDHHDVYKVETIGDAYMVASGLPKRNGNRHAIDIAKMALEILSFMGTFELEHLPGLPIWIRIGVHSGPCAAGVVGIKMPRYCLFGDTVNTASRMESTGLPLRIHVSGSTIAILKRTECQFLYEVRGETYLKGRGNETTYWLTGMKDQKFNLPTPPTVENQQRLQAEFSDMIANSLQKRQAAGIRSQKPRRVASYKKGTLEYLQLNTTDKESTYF
T5 sequence (P25092 24-430 limits assumed): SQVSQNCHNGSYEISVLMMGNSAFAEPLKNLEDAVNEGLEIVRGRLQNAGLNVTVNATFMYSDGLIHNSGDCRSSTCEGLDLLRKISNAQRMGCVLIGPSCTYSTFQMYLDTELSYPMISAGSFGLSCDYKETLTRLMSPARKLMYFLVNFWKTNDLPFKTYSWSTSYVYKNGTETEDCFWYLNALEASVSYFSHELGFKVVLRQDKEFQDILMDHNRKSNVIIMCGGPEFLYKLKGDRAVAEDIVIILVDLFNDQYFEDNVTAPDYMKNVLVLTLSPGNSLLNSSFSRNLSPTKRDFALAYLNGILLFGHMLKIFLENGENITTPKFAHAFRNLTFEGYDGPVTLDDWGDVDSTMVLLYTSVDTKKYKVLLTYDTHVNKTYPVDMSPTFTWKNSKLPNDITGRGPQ
T7 sequence (P25092 24-430 F281L limits assumed): as the sequence (P25092 24-430 limits assumed) above, with F258L counted along it

Binder	EC50 [1] [nM]	EC50 (Human GUCY2C ECD-muIgG2a) [nM]	T84 tumor cell EC50 (T cell cytotoxicity, E:T 10:1) [2] [nM]	Kd [3] [nM]	koff [3] [s⁻¹]	kon [3] [M⁻¹ s⁻¹]	EC50 [4] [nM]	EC50 (Human CD3 epsilon-delta [5]) [nM]	also measured
GUCY2C-0166 (antibody, human IgG1, V domains shown, human IgG1) VH: EVQLVESGGGLVQPGGSLRLSCAASGYTFTTYWMQWVRQAPGKGLEWIGAIYPGDGMTTYTQKFKDRFTISADKAKNSAYLQMNSLRAEDTAVYYCVRKGMDYWGQGTLVTVSS VL: DIQLTQSPSSLSASVGDRVTITCRASESVDNYGISFMNWFQQKPGKAPKLLIYAASNPGSGVPSRFSGSGSGTDFTLTISSLQPEDFATYYCQQSKEVPYTFGQGTKLEIK	0.0693								
GUCY2C-0104 (bispecific antibody) chain 1: DIVMTQSPASLAVSLGQRATISCRASKGVTTSGYSYMHWYQQKPGQPPKLLIYLASNLESGVPARFSGSGSGTDFTLNIHPVEEEDAATYYCQHSREFPLTFGAGTKLELKGGGSGGGGEVQLVESGGGLVQPGGSLRLSCAASGFTFSDYYMTWVRQAPGKGLEWVAFIRNRARGYTSDHNPSVKGRFTISRDNAKNSLYLQMNSLRAEDTAVYYCARDRPSYYVLDYWGQGTTVTVSSGCPPCPAPEAAGAPSVFLFPPKPKDTLMISRTPEVTCVVVDVSHEDPEVKFNWYVDGVEVHNAKTKPREEQYNSTYRVVSVLTVLHQDWLNGKEYKCKVSNKALPAPIEKTISKAKGQPREPQVCTLPPSREEMTKNQVSLWCLVKGFYPSDIAVEWESNGQPENNYKTTPPVLDSDGSFFLYSKLTVDKSRWQQGNVFSCSVMHEALHNHYTQKSLSLSPG chain 2: DIVMTQSPDSLAVSLGERATINCKSSQSLFNVRSRKNYLAWYQQKPGQPPKLLISWASTRESGVPDRFSGSGSGTDFTLTISSLQAEDVAVYYCKQSYDLFTFGSGTKLEIKGGGSGGGGEVQLQQSGAELVKPGASVKLSCTASGFNIKDTYIHWVKQRPEQGLEWIGRIDPANGNANYDPKFQGKATITADTSSNTAYLQLSSLTSEDTAVFYCSSLGTGTYWGQGTTLTVSSGCPPCPAPEAAGAPSVFLFPPKPKDTLMISRTPEVTCVVVDVSHEDPEVKFNWYVDGVEVHNAKTKPREEQYNSTYRVVSVLTVLHQDWLNGKEYKCKVSNKALPAPIEKTISKAKGQPREPQVYTLPPCREEMTKNQVSLSCAVKGFYPSDIAVEWESNGQPENNYKTTPPVLDSDGSFFLVSKLTVDKSRWQQGNVFSCSVMHEALHNHYTQKSLSLSPG		2.48	14.9	26.1	0.00386	148000	> 100	0.418	
GUCY2C-0074 (bispecific antibody, chimeric CD3-GUCY2c diabody-Fc, CD3-0004) chain 1: DIVLTQSPASLAVSLGQRATISCRASESVDNYGISFMNWFQQKPGQPPKLLIYAASNPGSGVPARFSGSGSGTDFSLNIHPLEEDDTAMFFCQQSKEVPYTFGGGTKLEIKGGGSGGGGEVQLVESGGGLVQPGGSLRLSCAASGFTFSDYYMTWVRQAPGKGLEWVAFIRNRARGYTSDHNPSVKGRFTISRDNAKNSLYLQMNSLRAEDTAVYYCARDRPSYYVLDYWGQGTTVTVSSGCPPCPAPEAAGAPSVFLFPPKPKDTLMISRTPEVTCVVVDVSHEDPEVKFNWYVDGVEVHNAKTKPREEQYNSTYRVVSVLTVLHQDWLNGKEYKCKVSNKALPAPIEKTISKAKGQPREPQVCTLPPSREEMTKNQVSLWCLVKGFYPSDIAVEWESNGQPENNYKTTPPVLDSDGSFFLYSKLTVDKSRWQQGNVFSCSVMHEALHNHYTQKSLSLSPG chain 2: DIVMTQSPDSLAVSLGERATINCKSSQSLFNVRSRKNYLAWYQQKPGQPPKLLISWASTRESGVPDRFSGSGSGTDFTLTISSLQAEDVAVYYCKQSYDLFTFGSGTKLEIKGGGSGGGGEVQLQQSGAELARPGASVNLSCKASGYTFTTYWMQWVKQRPGQGLEWIGAIYPGDGMTTYTQKFKDKATLTADKSSSTAYMQLSSLASEDSAVYYCVRKGMDYWGQGTSVTVSSGCPPCPAPEAAGAPSVFLFPPKPKDTLMISRTPEVTCVVVDVSHEDPEVKFNWYVDGVEVHNAKTKPREEQYNSTYRVVSVLTVLHQDWLNGKEYKCKVSNKALPAPIEKTISKAKGQPREPQVYTLPPCREEMTKNQVSLSCAVKGFYPSDIAVEWESNGQPENNYKTTPPVLDSDGSFFLVSKLTVDKSRWQQGNVFSCSVMHEALHNHYTQKSLSLSPG		4.05	2.6				> 100	1.13	Kd [6]: 45.4 nM; koff [6]: 0.002 s⁻¹; kon [6]: 44100 M⁻¹ s⁻¹; Kd [7]: 60.4 nM; koff [7]: 0.00284 s⁻¹; kon [7]: 47300 M⁻¹ s⁻¹; Kd (Human CD3 epsilon-delta [8]): 2.17 nM; koff (Human CD3 epsilon-delta [8]): 0.000861 s⁻¹; kon (Human CD3 epsilon-delta [8]): 471000 M⁻¹ s⁻¹; Kd [9]: 2.64 nM; koff [9]: 0.00112 s⁻¹; kon [9]: 425000 M⁻¹ s⁻¹; Kd [10]: 191 nM; koff [10]: 0.00282 s⁻¹; kon [10]: 14800 M⁻¹ s⁻¹
GUCY2C-0077 (bispecific antibody) chain 1: DIVLTQSPASLAVSLGQRATISCRASESVDNFDISFMNWFQQKPGQPPKLLIYAASNQGSGVPARFSGSGSGTDFSLNIHPMEEDDTAMYFCQQSKEVPYTFGGGTKLEIKGGGSGGGGEVQLVESGGGLVQPGGSLRLSCAASGFTFSDYYMTWVRQAPGKGLEWVAFIRNRARGYTSDHNPSVKGRFTISRDNAKNSLYLQMNSLRAEDTAVYYCARDRPSYYVLDYWGQGTTVTVSSGCPPCPAPEAAGAPSVFLFPPKPKDTLMISRTPEVTCVVVDVSHEDPEVKFNWYVDGVEVHNAKTKPREEQYNSTYRVVSVLTVLHQDWLNGKEYKCKVSNKALPAPIEKTISKAKGQPREPQVCTLPPSREEMTKNQVSLWCLVKGFYPSDIAVEWESNGQPENNYKTTPPVLDSDGSFFLYSKLTVDKSRWQQGNVFSCSVMHEALHNHYTQKSLSLSPG chain 2: DIVMTQSPDSLAVSLGERATINCKSSQSLFNVRSRKNYLAWYQQKPGQPPKLLISWASTRESGVPDRFSGSGSGTDFTLTISSLQAEDVAVYYCKQSYDLFTFGSGTKLEIKGGGSGGGGEVQLQQSGAELARPGASVKLSCKASGYTFTKYWMQWIKQRPGQGLEWIGAIYPGDGFTTYTQKFKGKATLTADKSSNTAYMQLSSLASEDSAVYYCARRNYGRTYGGDYWGQGTSVTVSSGCPPCPAPEAAGAPSVFLFPPKPKDTLMISRTPEVTCVVVDVSHEDPEVKFNWYVDGVEVHNAKTKPREEQYNSTYRVVSVLTVLHQDWLNGKEYKCKVSNKALPAPIEKTISKAKGQPREPQVYTLPPCREEMTKNQVSLSCAVKGFYPSDIAVEWESNGQPENNYKTTPPVLDSDGSFFLVSKLTVDKSRWQQGNVFSCSVMHEALHNHYTQKSLSLSPG		7.5	28.7	160	0.0224	143000	27.5	0.887	
GUCY2C-0193 (antibody, human IgG1, V domains shown) VH: EVQLVESGGGLVQPGGSLRLSCAASGYTFTSYWMHWVRQAPGKGLEWIGEIKPSNGLTNYIEKFKNRFTISVDKAKNSAYLQMNSLRAEDTAVYYCTRTITTTEGYWFFDVWGQGTLVTVSS VL: DIQMTQSPSSLSASVGDRVTITCRASESVDYYGTSLMQWYQQKPGKAPKLLIYAASNVESGVPSRFSGSGSGTDFTLTISSLQPEDFATYYCQQTRKVYTFGQGTKLEIK	0.23								
GUCY2C-0179 (antibody, human IgG1, V domains shown) VH: EVQLVESGGGLVQPGGSLRLSCAASGYSFTDYIMLWVRQAPGKGLEWIGNSNPYYGSTSYNLKFKGRFTISVDKAKNSAYLQMNSLRAEDTAVYYCARSGYYGSSPYWYFDVWGQGTMVTVSS VL: DIQMTQSPSSLSASVGDRVTITCKSSQSLLYSSNQKNYLAWYQQKPGKSPKLLIYWASTRESGVPSRFSGSGSGTDFTLTISSLQPEDFATYYCQQYYSYPTFGGGTKVEIK	5.14								
